From patent publication US6652861B1, “Anti-HIV and anti-tumor peptides and truncated polypeptides of MAP30” (priority 1999, dated 2003) come the findings set out here.

Where two headings read alike, the source gives them in different places.

One series concerns the target T1, HIV-1 integrase (Human immunodeficiency virus type 1 group M subtype B, UniProt P04585).
T1 construct: assayed by the 3′-processing reaction of HIV-1 integrase
The series is described as follows: HIV-integrase inhibition (3'-processing, strand transfer, disintegration). Conditions: strand transfer and disintegration. In kind it is biochemical. Here is the method:
(§1) In FIG. 4A, the inhibition on HIV-integrase was assayed by the 3′-processing reaction of HIV-1 integrase (Lee-Huang et al., 1995). This activity was assayed by specific cleavage of the dinucleotide GT from 5′-[^32P] labeled 21-mer of the HIV-U3-LTR substrate. The effect was measured by the inhibition of the formation of labeled 19-mer product by autoradiography of urea gels. […] In FIG. 4B, topological inactivation was measured by the conversion of supercoiled HIV-LTR DNA (S) into relaxed (R) and linear (L) forms by agarose gel electrophoresis (Huang et al., 1992). Samples that cause topological inactivation show L and R and no S forms.
(§2) Anti-HIV activity was determined by inhibition on the expression of viral core protein p24 expression by RIA (Lee-Huang et al., 1990; Lee-Huang et al., 1991 and Lee-Huang et al., 1999). Anti-tumor activity was determined by the effects of the peptide fragments on the growth of human breast tumor cell line MDA-MB-231 by [^3H] thymidine incorporated (Lee-Huang et al., 1999 and Rybak et al., 1994). HIV-integrase inhibition was assayed by the three specific reactions catalyzed by the integrase, namely, 3′ processing (specific cleavage of the dinucleotide GT from the viral substrate HIV-LTR U3), strand transfer (integration) and disintegration (Lee-Huang et al., 1995). Topological inactivation was measured by the conversion of supercoiled HIV-LTR DNA to relaxed and linear forms (Huang et al., 1992). Ribosome inactivation was determined by the translation of globin message in a rabbit reticulocyte lysate system (Lee-Huang et al., 1990 and Lee-Huang et al., 1991).

A further series deals with supercoiled HIV-LTR DNA. As to the kind of experiment: Topological inactivation: conversion of supercoiled HIV-LTR DNA to relaxed and linear forms. Format: biochemical. Conditions: supercoiled HIV-LTR into relaxed and linear forms. As to the method: as §1, §2
The subject of series [1] is ribosome (rabbit reticulocyte lysate system). As to the kind of experiment: Ribosome inactivation: translation of globin message in a rabbit reticulocyte lysate system. Conditions: [3H]-labelled leucine incorporation. Format: biochemical. As to the method: (§3) In FIG. 3A, anti-HIV activity was assayed by HIV core protein p24 expression in H9 cells (Lee-Huang et al., 1990 and Lee-Huang et al., 1991). […] Anti-tumor activity was determined by in vitro proliferation of human breast tumor MAD-MB-231 cell by [^3H] thymidine incorporation (Lee-Huang et al., 1999) and the average control value was about 1.88×10^5 cpm/ml (FIG. 3B). In FIG. 3C, the cytotoxic effect was measured by the MTS colorimetric assay (Lee-Huang et al., 1999), and in FIG. 3D, the ribosome-inactivation activity was determined by in vitro translation of globin message in a rabbit reticulocyte lysate system (Lee-Huang et al., 1990 and Lee-Huang et al., 1991) and the average control value was about 5.8×10^4 cpm/ml. In each assay, triplicates were carried in two independent experiments, and the results are normalized to values obtained in control assays. Standard deviations are indicated by error bars.
as §2
The anti-HIV and anti-tumor fragments, MLF25, MLF21, MVF25, MVF21, GLF26, GLF22, GVF26, GVF22 are active in HIV-integrase inhibition as assayed by the 3′-processing (FIG. 4A), strand transfer and disintegration (data not shown) as well as in DNA topological inactivation as assayed by the conversion of supercoiled HIV-LTR into relaxed and linear forms (FIG. 4B). […] Moreover, the C-terminal regions of these proteins are required for N-glycosidase activity, but not for antiviral and anti-tumor activities.

Series [2] concerns endoproteinase Lys-C and Glu-C (V8). The series is described as follows: Resistance to limited proteolysis with Lys-C and V8 (SDS-PAGE). Conditions: Lys-C or V8, up to 24 hr. As to the method: MAP30 and GAP31 were subjected to proteolysis with sequencing grade endoproteinase Lys-C and Glu-C (Promega, Madison, Wis.). Lys-C cleaves at the carboxylic side of lysine (Elliott et al., 1986). Glu-C, also known as V8 protease, cleaves specifically at the carboxylic side of glutamic acid in the presence of ammonium ion (Drapeau et al., 1972). In the absence of ammonium ion, Glu-C acts at both aspartic and glutamic acids. The reaction buffers for Lys-C and V8 were 25 mM Tris-HCl, pH 7.8, 1 mM EDTA and 50 mM ammonium bicarbonate, pH 7.8 respectively.
FIGS. 1A-1D show time course SDS-PAGE patterns of Lys-C and V8 digestions of MAP30 and GAP31. Three major fragments were produced in each case. These fragments are designated MLF25, MLF21, MLF0.8 (MAP30 Lys-C Fragments of 25, 21, and 0.8 kDa, FIG. 1A), MVF25, MVF21, MVF0.8 (MAP30 V8 Fragments of 25, 21, and 0.8 kDa, FIG. 1B), GLF26, GLF22, GLF0.6 (GAP31 Lys-C Fragments of 26, 22 and 0.6 kDa, FIG. 1C), and GVF26, GVF22, GVF0.6 (GAP31 V8 Fragments of 26, 22 and 0.6 kDa, FIG. 1D). The smaller peptides are C-terminal fragments produced during proteolysis and they are sensitive to further digestion to short peptides.

Another series has as its system HIV-1. As to the kind of experiment: Anti-HIV activity: viral core protein p24 expression in HIV-1 infected H9 T lymphocytes by RIA. In kind it is cell-based. Here is the method: as §3, §2
(§4) To analyze the structural and activity relationship of the anti-HIV proteins, each of the homogeneous proteolytic fragments was assayed for anti-HIV and anti-tumor activities. […] Anti-HIV activity was measured by viral core protein p24 expression in HIV-1 infected H9 T lymphocytes by RIA (Lee-Huang et al., 1990 and Lee-Huang et al., 1991). Anti-tumor activity was measured by proliferation of human breast tumor MDA231 cells (Lee-Huang et al., 1999 and Rybak et al., 1994). […] No significant difference in the anti-HIV and anti-tumor activities was detected between these core fragments.

The test system of series [3] is human breast tumor cell line MDA-MB-231. The series is described as follows: Anti-tumor activity: proliferation of MDA-MB-231 cells by [3H] thymidine incorporation. Conditions: MDA231 proliferation. In kind it is cell-based. As to the method: as §3, §2, §4

On to “GVF22: GAP31 V8 fragment, 21-22 kDa, residues 1-195 of SEQ ID NO:2”, for which, in the series with HIV-1 integrase, the “HIV-integrase inhibition” value is reported as “active”. Further, the “DNA topological inactivation” value with supercoiled HIV-LTR DNA is “active”. For the same molecule, the “ribosome inactivation” value in series [1] is on record as “none of these fragments are active”. Moreover, the resistance to proteolysis entry in series [2] is “remained intact even after 24 hr of proteolysis”.
In the case of “GLF0.6: GAP31 Lys-C C-terminal fragment, residues 201-251 of SEQ ID NO:2 (LSFQIRTSGANGMFSEAVELERANGKKYYVTAVDQVKPKIALLKFVDKDPK; listed as Gelonium multiflorum)”, the “anti-HIV activity” value was “neither anti-HIV nor anti-tumor activity” in the series with HIV-1 and “no activity was found” in the series on HIV-1 (listed as peak 3). The “anti-tumor activity” value is on record as “neither anti-HIV nor anti-tumor activity” in series [3] and “no activity was found” in series [3] (listed as peak 3).
Take “GVF26: GAP31 V8 fragment, 25-26 kDa, residues 1-219 of SEQ ID NO:2”: the “HIV-integrase inhibition” value with HIV-1 integrase is reported as “active”. Moreover, the “DNA topological inactivation” value with supercoiled HIV-LTR DNA was “active”. Also, the “ribosome inactivation” value in series [1] is recorded as “none of these fragments are active”.
Take “GVF0.6: GAP31 V8 C-terminal fragment, residues 196-251 of SEQ ID NO:2 (NKWGKLSFQIRTSGANGMFSEAVELERANGKKYYVTAVDQVKPKIALLKFVDKDPK; listed as Gelonium multiflorum)”: the “anti-HIV activity” value in the series on HIV-1 is “neither anti-HIV nor anti-tumor activity”. In addition, the “anti-tumor activity” value in series [3] is recorded as “neither anti-HIV nor anti-tumor activity”.
“GLF22: GAP31 Lys-C fragment, 21-22 kDa, residues 11-200 of SEQ ID NO:2”: in the series with HIV-1, the “anti-HIV activity” value is “Most of the anti-HIV and anti-tumor activity”. In addition, in series [3], the “anti-tumor activity” value was “Most of the anti-HIV and anti-tumor activity”. In addition, the “HIV-integrase inhibition” value with HIV-1 integrase is listed as “active”. Further, the “DNA topological inactivation” value in the series on supercoiled HIV-LTR DNA was “active”. Moreover, the “ribosome inactivation” value in series [1] is given as “none of these fragments are active”.

B1: MLF0.8: MAP30 Lys-C C-terminal fragment, residues 196-263 of SEQ ID NO:1 (protein, listed as Momordica charantia)
chain: QIFLAQNQGGKFRNPVDLIKPTGERFQVTNVDSDVVKGNIKLLLNSRASTADENFITTMTLLGESVVN
In the case of B1, the “anti-HIV activity” value with HIV-1 was “neither anti-HIV nor anti-tumor activity”. The “anti-tumor activity” value in series [3] is “neither anti-HIV nor anti-tumor activity”.

B2: MVF25: MAP30 V8 fragment, 24-25 kDa, residues 1-219 of SEQ ID NO:1 (protein, listed as Momordica charantia)
chain: DVNFDLSTATAKTYTKFIEDFRATLPFSHKVYDIPLLYSTISDSRRFILLDLTSYAYETISVAIDVTNVYVVAYRTRDVSYFFKESPPEAYNILFKGTRKITLPYTGNYENLQTAAHKIRENIDLGLPALSSAITTLFYYNAQSAPSALLVLIQTTAEAARFKYIERHVAKYVATNFKPNLAIISLENQWSALSKQIFLAQNQGGKFRNPVDLIKPTGE
B2: the “HIV-integrase inhibition” value in the series with HIV-1 integrase is recorded as “active”. Moreover, in the series on supercoiled HIV-LTR DNA, the “DNA topological inactivation” value is “active”. Besides, the “ribosome inactivation” value in series [1] is recorded as “none of these fragments are active”.

B3: MLF25: MAP30 Lys-C fragment, 24-25 kDa, residues 13-232 of SEQ ID NO:1 (protein, listed as Momordica charantia)
chain: TYTKFIEDFRATLPFSHKVYDIPLLYSTISDSRRFILLDLTSYAYETISVAIDVTNVYVVAYRTRDVSYFFKESPPEAYNILFKGTRKITLPYTGNYENLQTAAHKIRENIDLGLPALSSAITTLFYYNAQSAPSALLVLIQTTAEAARFKYIERHVAKYVATNFKPNLAIISLENQWSALSKQIFLAQNQGGKFRNPVDLIKPTGERFQVTNVDSDVVK
B3: the “HIV-integrase inhibition” value with HIV-1 integrase is recorded as “active”. The “DNA topological inactivation” value in the series with supercoiled HIV-LTR DNA was “active”. In addition, the “ribosome inactivation” value in series [1] was “none of these fragments are active”. Moreover, the resistance to proteolysis entry in series [2] was “remained intact even after 24 hr of proteolysis”.

B4: MVF0.8: MAP30 V8 C-terminal fragment, residues 188-263 of SEQ ID NO:1 (protein, listed as Momordica charantia)
chain: NQWSALSKQIFLAQNQGGKFRNPVDLIKPTGERFQVTNVDSDVVKGNIKLLLNSRASTADENFITTMTLLGESVVN
For the molecule B4, the “anti-HIV activity” value in the series on HIV-1 is reported as “neither anti-HIV nor anti-tumor activity”. Moreover, the “anti-tumor activity” value in series [3] was “neither anti-HIV nor anti-tumor activity”.

B5: MLF21: MAP30 Lys-C fragment, 20-21 kDa, residues 13-195 of SEQ ID NO:1 (protein, listed as Momordica charantia)
chain: TYTKFIEDFRATLPFSHKVYDIPLLYSTISDSRRFILLDLTSYAYETISVAIDVTNVYVVAYRTRDVSYFFKESPPEAYNILFKGTRKITLPYTGNYENLQTAAHKIRENIDLGLPALSSAITTLFYYNAQSAPSALLVLIQTTAEAARFKYIERHVAKYVATNFKPNLAIISLENQWSALSK
Regarding B5, the “HIV-integrase inhibition” value with HIV-1 integrase is “active”. The “DNA topological inactivation” value in the series on supercoiled HIV-LTR DNA is “active”. For the same molecule, in series [1], the “ribosome inactivation” value was “none of these fragments are active”.

B6: MVF21: MAP30 V8 fragment, 20-21 kDa, residues 1-187 of SEQ ID NO:1 (protein, listed as Momordica charantia)
chain: DVNFDLSTATAKTYTKFIEDFRATLPFSHKVYDIPLLYSTISDSRRFILLDLTSYAYETISVAIDVTNVYVVAYRTRDVSYFFKESPPEAYNILFKGTRKITLPYTGNYENLQTAAHKIRENIDLGLPALSSAITTLFYYNAQSAPSALLVLIQTTAEAARFKYIERHVAKYVATNFKPNLAIISLE
Turning to B6, in the series with HIV-1 integrase, the “HIV-integrase inhibition” value is recorded as “active”. Further, in the series on supercoiled HIV-LTR DNA, the “DNA topological inactivation” value was “active”. In series [1], the “ribosome inactivation” value is recorded as “none of these fragments are active”. For the same molecule, the resistance to proteolysis entry in series [2] is given as “remained intact even after 24 hr of proteolysis”.
